5 molecules from paper PMC6326804, “Structural insights into a unique preference for 3′ terminal guanine of mirtron in Drosophila TUTase tailor” (Nucleic Acids Research, 2018) can be followed below.

The target of one series is T1, Tailor-ZnC (Drosophila melanogaster, UniProt Q9VI58).
T1 construct: core domain with possible N-terminal C2H2 zinc finger, residues 137-560; N-terminal 8xHis-SUMO tag cut by ULP1; E. coli host
The experiment in a line: in-vitro nucleotide transferase assay, denaturing PAGE of Cy5-labelled RNA. Type of series: biochemical. Conditions: 1 mM UTP, 200 nM Cy5 truncated pre-mir-1003, 10 mM MgCl2, pH 7.2, 25 °C.

Series [1] addresses T2, Tailor-C (Drosophila melanogaster, UniProt Q9VI58, D343A).
T2 construct: core catalytic domain, residues 202-560; N-terminal 8xHis-SUMO tag cut by ULP1; E. coli host
The series can be described thus: X-ray crystal structure (crystal soaking), […] A. In kind it is binding. Conditions: D343A crystals soaked with 10 mM UTP and 20 mM MgCl2 for 10 min; active site of catalytic groove.

For the next series, the target named is Tailor-C V328I (Drosophila, UniProt Q9VI58 202-560, V328I). The experiment in a line: EMSA; no Mg2+ added; EMSA: 25 mM Tris-HCl pH 7.2, 100 mM NaCl, 5 mM DTT, 500 nM Cy5-RNA, 0-2.5 uM protein, 30 min on ice; 6% native gel at 4 C. Conditions: protein: recombinant; tags: 8xHis-SUMO tag removed by ULP1; label: 5'-Cy5; single strand. In general terms: In EMSA bound probe runs differently from free probe, usually more slowly.
Chain of Tailor-C V328I (Q9VI58 202-560 V328I): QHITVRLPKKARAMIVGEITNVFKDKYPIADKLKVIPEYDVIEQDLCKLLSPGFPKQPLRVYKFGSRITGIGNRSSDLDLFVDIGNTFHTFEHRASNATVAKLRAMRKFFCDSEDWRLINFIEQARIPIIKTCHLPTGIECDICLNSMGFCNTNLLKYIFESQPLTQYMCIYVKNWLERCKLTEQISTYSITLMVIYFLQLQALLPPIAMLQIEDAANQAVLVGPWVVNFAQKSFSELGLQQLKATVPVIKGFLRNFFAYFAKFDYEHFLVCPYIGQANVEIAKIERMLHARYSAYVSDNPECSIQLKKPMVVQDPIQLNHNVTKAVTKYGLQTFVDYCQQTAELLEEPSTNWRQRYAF

The target in another series is Tailor-C V328L (Drosophila, UniProt Q9VI58 202-560, V328L). The series is described as above. Conditions: protein: recombinant; tags: 8xHis-SUMO tag removed by ULP1; label: 5'-Cy5; single strand.
Chain of Tailor-C V328L (Q9VI58 202-560 V328L): as the sequence (Q9VI58 202-560 V328I) above, with I127L counted along it
A further series addresses Tailor-C V328R (Drosophila, UniProt Q9VI58 202-560, V328R). The series is described as above. Conditions: protein: recombinant; tags: 8xHis-SUMO tag removed by ULP1; label: 5'-Cy5; single strand.
Series [2] has as its target Tailor-C (Drosophila, UniProt Q9VI58 202-560). The experiment in a line: crystal structure; EMSA: 25 mM Tris-HCl pH 7.2, 100 mM NaCl, 5 mM DTT, 500 nM Cy5-RNA, 0-2.5 uM protein, 30 min on ice; 6% native gel at 4 C. Conditions: protein: recombinant; tags: 8xHis-SUMO tag removed by ULP1; single strand.

Chain of Tailor-C (Drosophila, UniProt Q9VI58 202-560) (Q9VI58 202-560): as the sequence (Q9VI58 202-560 V328I) above, with I127V counted along it
Chain of Tailor-C V328R (Q9VI58 202-560 V328R): as the sequence (Q9VI58 202-560 V328I) above, with I127R counted along it
T2 sequence (Q9VI58 202-560 D343A): as the sequence (Q9VI58 202-560 V328I) above, with I127V, D142A counted along it
T1 sequence (Q9VI58 137-560): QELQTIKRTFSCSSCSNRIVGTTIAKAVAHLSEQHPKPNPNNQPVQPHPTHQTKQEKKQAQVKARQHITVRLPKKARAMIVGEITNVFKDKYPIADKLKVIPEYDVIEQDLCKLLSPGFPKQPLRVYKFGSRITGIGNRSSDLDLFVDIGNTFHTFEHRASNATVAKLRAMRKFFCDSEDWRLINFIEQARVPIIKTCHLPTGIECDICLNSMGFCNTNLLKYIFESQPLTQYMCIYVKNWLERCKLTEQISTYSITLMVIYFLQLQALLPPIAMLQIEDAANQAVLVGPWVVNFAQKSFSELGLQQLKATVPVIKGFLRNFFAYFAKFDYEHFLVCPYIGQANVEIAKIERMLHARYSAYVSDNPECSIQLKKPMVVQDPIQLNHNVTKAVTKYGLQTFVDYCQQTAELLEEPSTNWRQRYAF

With `O=c1ccn([C@@H]2O[C@H](COP(=O)(O)OP(=O)(O)OP(=O)(O)O)[C@@H](O)[C@H]2O)c(=O)[nH]1` [UTP], the “in-vitro nucleotide transferase assay, denaturing PAGE of Cy5-labelled RNA” value at Tailor-ZnC is “Purified Tailor-ZnC, Tailor-C and mutants were assayed for oligouridylation activity”. For the same molecule, the “X-ray crystal structure (crystal soaking), 1.74 A” value on Tailor-C [1] is “The crystals of the complex of D343A with UTP were obtained by soaking crystals”.
Consider CAUAUUCACAG (ssRNA) [truncated miR-1003 (3'G)], for which the binding result with Tailor-C V328I, in the series with Tailor-C V328L and with Tailor-C V328R was “binds” throughout.
In the case of AGUU (ssRNA), the binding result in the series with Tailor-C [2] was “binds”.
Turning to AGU (ssRNA), the binding result with Tailor-C [2] is “binds”.
As for UUUU (ssRNA) [U4], in the series with Tailor-C [2], the binding result was “binds”.
